Measurements reported in publication PMC5303273, “Rab1 interacts with GOLPH3 and controls Golgi structure and contractile ring constriction during cytokinesis in Drosophila melanogaster” (Open Biology, 2017).

Target: T1, 6XHis-GOLPH3 (Drosophila melanogaster, UniProt Q9VQ93 1-294)
T1 construct: Drosophila GOLPH3 made with the pET Directional TOPO Expression kit; also called 6XHis-tagged GOLPH3; recombinant GOLPH3; source: recombinant (pET Directional TOPO Expression kit), purified (cOmplete His-Tag Purification Resin)
T1 sequence (Q9VQ93 whole entry): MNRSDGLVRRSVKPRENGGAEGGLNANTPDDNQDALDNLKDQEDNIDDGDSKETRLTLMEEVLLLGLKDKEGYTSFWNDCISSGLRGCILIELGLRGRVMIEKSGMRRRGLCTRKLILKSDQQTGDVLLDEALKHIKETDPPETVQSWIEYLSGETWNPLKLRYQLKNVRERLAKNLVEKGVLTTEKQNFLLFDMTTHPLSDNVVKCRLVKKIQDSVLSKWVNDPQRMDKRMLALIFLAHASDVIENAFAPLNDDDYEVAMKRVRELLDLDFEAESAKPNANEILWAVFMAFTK
Assay: pull-down; GST-Rab protein on glutathione beads loaded with GMP-PNP (GTP), incubated with recombinant 6XHis-GOLPH3 for 5 h at 4°C; blot with anti-6XHis
Conditions: both partners purified

B1: GST-Rab1 (natural protein)
chain: not shown
notes: full-length cDNA of Drosophila Rab1 cloned into pGEX-6p-2; In the direct pull-down the protein on the beads was loaded with GDP-beta-S or GMP-PNP; also called GST-full-length Drosophila Rab1; source: BL21-CodonPlus (DE3), purified (Glutathione-Sepharose 4B beads)
- binding result: binds
